Laboratory results: PMC5662737, “Structural and mechanistic insights into ATRX-dependent and -independent functions of the histone chaperone DAXX” (Nature Communications, 2017)

B1: human ATRX DAXX-binding motif (DBM) peptide, wild type [human] / human DAXX four-helix bundle domain (4HB, residues 50–144) [human] (parent complex)
chain 1: NDPENRIAKKMLLEEIKANLSSDE
chain 2: SSSSGGKKCYKLENEKLFEEFLELCKMQTADHPEVVPFLYNRQQRAHSLFLASAEFCNILSRVLSRARSRPAKLYVYINELCTVLKAHSAKKKLN
B2: human DAXX four-helix bundle domain (4HB, residues 50–144) [human] / human ATRX DAXX-binding motif (DBM) peptide, wild type [human] (parent complex)
chain 1: B1 chain 2
chain 2: NDPENRIAKKMLLEEIKANLSSDE

Variants of: B1
Test: ITC

Row | Variant | Kd
1 | chain 1 I16A | 12.9 µM

Variants of: B2
Test: ITC

Row | Variant | Kd
2 | chain 1 F38A | 7.5 µM
